Publication PMC6980855

What was measured:
[1] = target: Alexa568-labeled BimL-4E (mouse (M. musculus)); experiment: FRET or BRET; in solution, no membranes; constant Alexa568-labeled BimL protein (donor; 4 nM by the legend of Figure 3C, 20 nM by that of Figure 6-figure supplement 1) with increasing Alexa647-labeled Bax (acceptor); FRET from the decrease in Alexa568 fluorescence; fit: one site, specific binding with Hill slope
[2] = target: Alexa568-labeled BimL-dCTS (mouse (M. musculus)); experiment: FRET or BRET; with mouse liver mitochondria present; 4 nM Alexa568-labeled BimL or BimL-dCTS with increasing Alexa647-labeled Bax; fit in the sheet: Kd fitting advanced (donor fixed at 4)
[3] = target: Alexa568-labeled BimL-L129E (mouse (M. musculus)); experiment: FRET or BRET; in solution, no membranes; 20 nM Alexa568-labeled BimL protein (donor) with increasing Alexa647-labeled Bcl-XL (acceptor); fit: one site, specific binding with Hill slope (BimL-dCTS: another model with a constant fixed at 4)
[4] = target: Alexa568-labeled BimL-I132E (mouse (M. musculus)); experiment: as above
[5] = target: Alexa568-labeled BimL-V124E (mouse (M. musculus)); experiment: as above
[6] = target: Alexa568-labeled BimL-I125E (mouse (M. musculus)); experiment: as above
[7] = target: Alexa568-labeled BimL (single-cysteine mutant BimL Q41C) (mouse (M. musculus)); experiment: as above
[8] = target: Alexa568-labeled BimL-4E (mouse (M. musculus)); experiment: as above
[9] = target: Alexa568-labeled BimL-CTS2A (mouse (M. musculus)); experiment: as above
[10] = target: Alexa568-labeled BimL-dCTS (mouse (M. musculus)); experiment: as above
[11] = target: Alexa647-labeled Bax (single cysteine mutant 126C) (human (H. sapiens)) (UniProt Q07812)
Sequence of Alexa647-labeled Bax (single cysteine mutant 126C) (human (H. sapiens)) (Q07812 other isoform, or with tags, fused parts or gaps mutant): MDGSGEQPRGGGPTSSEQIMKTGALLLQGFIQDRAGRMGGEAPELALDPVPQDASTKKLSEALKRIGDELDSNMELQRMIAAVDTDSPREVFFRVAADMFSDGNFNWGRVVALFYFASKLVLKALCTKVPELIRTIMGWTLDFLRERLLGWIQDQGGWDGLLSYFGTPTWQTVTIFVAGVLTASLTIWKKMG

[12] = target: Bax (single cysteine 126C, Alexa647-labeled, recombinant) (H. sapiens) (UniProt Q07812)
Sequence of Bax (single cysteine 126C, Alexa647-labeled, recombinant) (H. sapiens) (Q07812 whole entry C62A): as the sequence (Q07812 other isoform, or with tags, fused parts or gaps mutant) above

[13] = target: Bax (single cysteine 126C, Alexa647-labeled, recombinant) (H. sapiens) (UniProt Q07812); remark: listed apart in the source
[14] = target: BimL-I125E (Alexa568-labeled, recombinant) (murine); experiment: FRET or BRET; values of Figure 6B (Alexa568-labeled BimL mutant, Alexa647-labeled Bcl-XL); the sentence does not say whether in solution or with liposomes
[15] = target: BimL-dCTS (Alexa568-labeled, recombinant) (murine); experiment: FRET or BRET; with mitochondrial-like liposomes present; constant Alexa568-labeled BimL protein (4 or 20 nM), Alexa647-labeled Bax or Bcl-XL titrated; apparent Kd
[16] = target: BimL-dCTS (Alexa568-labeled, recombinant) (murine); experiment: FRET or BRET; in solution, no membranes; constant Alexa568-labeled BimL protein (donor; 4, 10 or 20 nM), Alexa647-labeled Bax or Bcl-XL (acceptor) titrated; FRET from the decrease in Alexa568 fluorescence; Tecan infinite M1000
[17] = target: BimL-dCTS (Alexa568-labeled, recombinant) (murine); experiment: FRET or BRET; with mouse liver mitochondria present (Bak-/-; 0.2 mg/mL in Figure 7—figure supplement 1B); 4 nM Alexa568-labeled BimL protein, Alexa647-labeled Bax or Bcl-XL titrated; apparent Kd

Sequence of Alexa568-labeled BimL-4E (mouse (M. musculus)) (main, as listed by the source): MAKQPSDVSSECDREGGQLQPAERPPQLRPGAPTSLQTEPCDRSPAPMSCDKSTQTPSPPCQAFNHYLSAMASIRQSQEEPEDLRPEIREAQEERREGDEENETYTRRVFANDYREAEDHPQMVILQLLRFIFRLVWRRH

Question: For “Alexa647-labeled Bax (single cysteine mutant 126C) (from UniProt Q07812 1-192) (natural protein)”, which Kd [1] is on record?
Answer: 74900 nM

Question: What about the Kd [2] of the same substance?
Answer: 5.75 nM

Question: What does the source list for “Alexa647-labeled Bcl-XL (single cysteine mutant 152C) (from UniProt Q07817-1 1-233) (natural protein)”?
Answer: Kd [3]: 9.07 nM; Kd [4]: 9.75 nM; Kd [5]: 11.3 nM; Kd [6]: 8.06 nM; Kd [7]: 8.28 nM; Kd [8]: 70600 nM; Kd [9]: 10.9 nM; Kd [10]: 17.2 nM

Question: How did the EC50 of Bax (100 nM) activation by BimL-V124E: ANTS/DPX release from liposomes [11] turn out when “Alexa568-labeled BimL-V124E (natural protein)” was run?
Answer: 1.21 nM

Question: For “Alexa568-labeled BimL-I125E (natural protein)”, which EC50 of Bax (100 nM) activation by BimL-I125E: ANTS/DPX release from liposomes [11] is on record?
Answer: 105 nM

Question: With “Alexa568-labeled BimL-dCTS (domain or fragment)” as the substance, how does the EC50 of Bax (100 nM) activation by BimL-dCTS: ANTS/DPX release from liposomes [11] read?
Answer: 489000 nM

Question: How did the EC50 of Bax (100 nM) activation by BimL: ANTS/DPX release from liposomes [11] turn out when “Alexa568-labeled BimL (single-cysteine mutant BimL Q41C) (natural protein)” was run?
Answer: 0.549 nM

Question: Which EC50 of Bax (100 nM) activation by BimL-L129E: ANTS/DPX release from liposomes [11] does the source give for “Alexa568-labeled BimL-L129E (natural protein)” here?
Answer: 2170 nM

Question: “Alexa568-labeled BimL-I132E (natural protein)” was tested. Which EC50 of Bax (100 nM) activation by BimL-I132E: ANTS/DPX release from liposomes [11] did it give?
Answer: 2800 nM

Question: What does the source list for “BimL (single cysteine Q41C, Alexa568-labeled, recombinant) (natural protein)”?
Answer: EC50 of Bax-mediated permeabilisation of ANTS/DPX liposomes (100 nM Bax) [12]: 1 nM; ANTS/DPX release after adding increasing Bax to isolated liposomes carrying ~5 nM membrane-bound BimL [13]: 60%

Question: “BimL-I125E (Alexa568-labeled, recombinant) (natural protein)” was tested. Which EC50 of Bax-mediated permeabilisation of ANTS/DPX liposomes (100 nM Bax) [12] did it give?
Answer: 100 nM

Question: For “Bcl-XL (single cysteine 152C, Alexa647-labeled, recombinant) (from UniProt Q07817-1 1-233) (natural protein)”, which Kd [14] is on record?
Answer: < 3 nM

Question: What about the Kd [15] of the same substance?
Answer: 35 nM

Question: What about the Kd [16] of the same substance?
Answer: < 16 nM

Question: And the Kd [17]?
Answer: 35 nM
